Experimental data taken from PMC6307458, “Inhibition of Inflammatory Changes in Human Myometrial Cells by Cell Penetrating Peptide and Small Molecule Inhibitors of NFκB” (Frontiers in Immunology, 2018).

System: human myometrial cells
Assay: Live cell confocal microscopy, delivery of rhodamine cargo
Conditions: live cell spinning disk confocal microscopy; primary human myometrial cells; 1, 3 and 10 μM; 60 min; 37°C, 5% CO2; serum-reduced media (0.1% FCS); 3 independent experiments
Method: Cells were washed in phosphate buffered saline and changed to serum-reduced media (0.1%FCS) for 18–24 h ([39]).
Initial images were collected to assess baseline cellular auto-fluorescence prior to the addition of varying concentrations of fluorophore-CPP/fluorophore- CPP-Cargo/fluorophore-control peptide combinations (see Table 1) that were ready made up in serum-reduced cell media. Further images were captured 60 min following application.
To make a thorough assessment of fluorescent uptake throughout whole cells, all images were captured as a series of slices in the Z plane (range 3–10 slices per area selected, each slice 0.54 μm apart) with the 40x objective using live cell spinning disk confocal microscopy (Andor Revolution XD coupled to an Olympus IX-81 inverted microscope; Andor Belfast UK). All images were digitally recorded with IQ2 software (Andor, Belfast, UK).

Substance | delivery of rhodamine fluorophore internal to the cells
Rhodamine-RQIKIWFQNRRMKW-Aca- TALDWSWLQTE [rhodamine Pen(43-56)–NBD] | demonstrated ability to enter myometrial cells
Rhodamine–RQIKIWFQNRRMKWKK [Penetratin, conjugated to rhodamine] | able to enter uterine cells
